± gives the uncertainty stated by the source.
Experiment: protein stability index of a GFP-peptide fusion (yeast GPS) (PSI 1-4); higher = more stable; sorted into four equal gates, so the index is relative within each strain
Method in brief: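 Yeast carrying a pooled library were grown to mid-log phase in leucine-free medium. Each library plasmid expresses Cherry and has a tiled 17-residue yeast protein peptide fused downstream of GFP. Cells were sorted into four equal gates by GFP/Cherry ratio, and plasmids from each gate were PCR-amplified, Illumina-sequenced and assigned to strains by barcode. Summing, across gates, the read frequency times the gate number gave each peptide's protein stability index.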

Sequence	protein stability index (pdr5∆)	protein stability index (san1∆)	protein stability index (ubr1∆)	protein stability index (doa10∆)
ALRALARSGLRIGRIED [RPS14A]	2.12 ± 0.096	2.33 ± 0.1	2.01 ± 0.071	
KQDKTLQKVENQTIKEA [YIL149C/MLP2]	3.15 ± 0.07	3.15 ± 0.071	3.17 ± 0.062	3.22 ± 0.072
LKTNGKQNNKDFRTRYI [MTW1]	2.84 ± 0.065	2.52 ± 0.081	2.51 ± 0.059	2.75 ± 0.059
VPRLFDLVKPKNPKFSN [SMC4]	2.62 ± 0.061	2.45 ± 0.091	2.81 ± 0.052	2.54 ± 0.052
SVKLKQKRLEAGALNLA [DIS3]	3.11 ± 0.12	3.36 ± 0.081	3 ± 0.071	3.42 ± 0.13
GLMSANNIIAEGIEKMG [FAS2]	1.74 ± 0.098	1.58 ± 0.18	1.48 ± 0.084	1.68 ± 0.12
LIYVNPFMLQWGIPLIK [FAS1]	1.4 ± 0.099	1.13 ± 0.14	1.65 ± 0.064	1.45 ± 0.082
LKDLNLTVSIKIALMNI [RGR1]	1.66 ± 0.066	1.73 ± 0.077	1.21 ± 0.06	1.34 ± 0.062
QNLRKELLIYKKSQCKK [YIL149C/MLP2]	2.35 ± 0.086	1.84 ± 0.086	1.63 ± 0.068	1.75 ± 0.078
ETIIEADKSLPSSMATL [YJR042W/NUP85]	2.85 ± 0.061	3 ± 0.046	2.91 ± 0.055	2.75 ± 0.083
QQQNASSKLYQMQQQQQ [GAL11]	1.66 ± 0.073	1.5 ± 0.13	1.78 ± 0.064	1.76 ± 0.091
FLESSKEIDPSQTTQLA [FAS2]	3 ± 0.085	2.6 ± 0.084	2.42 ± 0.14	2.89 ± 0.11
QAIKEASYVNIPVIALT [RPS0A]	2 ± 0.061	2.15 ± 0.12	1.78 ± 0.057	2.07 ± 0.068
TLKIHLKKFLQEKMDPN [IRR1]	3.01 ± 0.08	3.08 ± 0.084	2.82 ± 0.099	2.86 ± 0.1
KISEGSAKPTFSFSKSE [YOR098C/NUP1]	1.92 ± 0.17	2.11 ± 0.2	1.77 ± 0.11	1.75 ± 0.11
VTKWTNQLTESASHFEQ [YJL041W/NSP1]	3.19 ± 0.099	3.16 ± 0.091	2.83 ± 0.098	2.85 ± 0.13
KTEYVLNDLNHLLVQLQ [REC8]	3.02 ± 0.25		3.02 ± 0.094	
NAGTNDNSFNELTDNMS [MCD1]	3.13 ± 0.076	3.15 ± 0.042	3.3 ± 0.05	3.01 ± 0.082
YSTLKELLEYSDDIAEN [YCG1]	2.84 ± 0.053	2.74 ± 0.053	2.59 ± 0.04	2.81 ± 0.048
VEEYTWSSLLNEGLVEY [RPB2]	3.2 ± 0.18	3.11 ± 0.089		
LPKFLTVQYVRFFWKRS [UBP6]	1.35 ± 0.035	1.24 ± 0.085	1.19 ± 0.032	1.62 ± 0.04
LCVLDYDNIDIQRGRIL [RPB7]	1.93 ± 0.1	3.08 ± 0.13	2.42 ± 0.12	1.96 ± 0.1
PEDAQLLLAANTHLGAR [RPS0A]	1.39 ± 0.052	1.63 ± 0.12	1.9 ± 0.068	1.63 ± 0.058
NLQTFTHEQWSNIQRNV [SRP72]	3 ± 0.064	3.01 ± 0.058	2.93 ± 0.046	2.86 ± 0.065
FAGVASKKVTSGVPRLK [RPO21]	3.08 ± 0.2			3.03 ± 0.2
NSQVFGVARIYASFNDT [RPS14B]	2.45 ± 0.065	2.5 ± 0.048	2.67 ± 0.079	2.54 ± 0.08

Sequence	protein stability index (pdr5∆)	protein stability index (san1∆)	protein stability index (ubr1∆)	protein stability index (doa10∆)
LVHTQIRKTPLAQKKAH [RPL3]	1.38 ± 0.049	1.65 ± 0.069	1.63 ± 0.034	1.37 ± 0.057
TDLTNNSTDGAKITEIG [YIL149C/MLP2]	3.17 ± 0.08	3.07 ± 0.058	3.28 ± 0.055	3.35 ± 0.087
ENSYLRGLTPQEFFFHA [RPO21]	2.64 ± 0.046	2.45 ± 0.062	2.64 ± 0.047	2.49 ± 0.046
ELMDRTGLKLYSRITLI [RPP1]	2.66 ± 0.1	1.69 ± 0.1	2.43 ± 0.12	1.57 ± 0.11
QRHIAVGKQIVNIPSFM [RPS9A]	2.74 ± 0.067	2.89 ± 0.082	2.8 ± 0.065	2.48 ± 0.056
FDALRSLDDNSTSLEKQ [YJL041W/NSP1]	3.03 ± 0.11	3 ± 0.062	3.02 ± 0.066	2.99 ± 0.086
EETYEEKPQFKDGETTD [RPO26]	2.98 ± 0.28	3.47 ± 0.19	3.34 ± 0.14	3.24 ± 0.23
NTGDGSISTYKDILNLA [ECM29]	2.97 ± 0.11	3.04 ± 0.081	3.09 ± 0.079	3.03 ± 0.083
SENRFPGWDFETEEIDP [RPL5]	2.78 ± 0.076	2.48 ± 0.078	2.5 ± 0.16	2.77 ± 0.14
AVKKLYAIIINYTKDNE [YCS4]	2.05 ± 0.068	1.93 ± 0.1	1.91 ± 0.029	1.82 ± 0.057
TATNSKGEQIAIFPYQD [ECM29]	2.98 ± 0.12	3.29 ± 0.12	3.15 ± 0.15	2.44 ± 0.085
IYFTVPNEFEIQLSTVN [RGR1]	2.22 ± 0.058	1.88 ± 0.061	2.2 ± 0.042	2.21 ± 0.064
QLDDEDFDLLNKTLTFE [FAS1]	3.58 ± 0.098	3.36 ± 0.069	3.16 ± 0.085	3.38 ± 0.12
EVGPWGSARTRWEMEAF [FAS2]	1.62 ± 0.25		1.6 ± 0.13	1.23 ± 0.077
ANDEEAYIKLLDQTKDT [SNF2]	3.21 ± 0.072	3.4 ± 0.069	3 ± 0.1	2.98 ± 0.088
EDETLRRIKEAEENLKK [YIL149C/MLP2]	3.54 ± 0.15	3.26 ± 0.076	3.69 ± 0.13	3.54 ± 0.23
SFSVCKIRCFRYISTLT [IRR1]	1.39 ± 0.055	1.49 ± 0.11	1.31 ± 0.052	1.61 ± 0.057
RGSSSLYTLVINDAGKA [RPL38]	1.26 ± 0.068	1.17 ± 0.13	1.12 ± 0.086	1.57 ± 0.061
KTWLRNQEDEKNLQRES [RTT102]			3.23 ± 0.19	
AAAFSQQQNASSKLYQM [GAL11]	2.86 ± 0.071	2.82 ± 0.045	3.25 ± 0.072	2.71 ± 0.097
YHTNPGHSQFTSHYQNY [RPN4]	2.9 ± 0.089	3.02 ± 0.079	3.04 ± 0.054	2.82 ± 0.067
VLLHGASLGIGLAAMGS [RPN2]	1.9 ± 0.069	1.93 ± 0.072	1.56 ± 0.065	1.82 ± 0.071
TLLWNKNDKLIKIEDFV [SNF5]	1.74 ± 0.066	1.55 ± 0.095	1.83 ± 0.036	1.8 ± 0.081
LTSSKSVIVSQFCAFDS [SIN4]	2.14 ± 0.06	1.98 ± 0.1	1.64 ± 0.066	2 ± 0.066
KNSSVSSLMNGLGYVFE [SRB5]	1.72 ± 0.073	2.4 ± 0.1	2.51 ± 0.056	3.06 ± 0.14
QTLYTGDKVVVTIWYRA [SSN3]	1.32 ± 0.069	1.25 ± 0.13	1.47 ± 0.047	1.22 ± 0.058

— the supplement of paper PMC9732359
